Measurements from article PMC9927256, “Structural and Functional Characterization of Rv0792c from Mycobacterium tuberculosis: Identifying Small Molecule Inhibitor against HutC Protein” (Microbiology Spectrum, 2022).

Assays:
Rv0792c = biological target: T1, Rv0792c (Mycobacterium tuberculosis, UniProt O86331); test: […]; EMSA with Cy5-labeled native promoter; format: binding
T1 construct: His6-Rv0792c

[1] = biological target: T2, Rv0792c (HutC, GntR family) (Mycobacterium tuberculosis) (UniProt O86331); test: competitive ALISA
T2 sequence (O86331 whole entry, looked up): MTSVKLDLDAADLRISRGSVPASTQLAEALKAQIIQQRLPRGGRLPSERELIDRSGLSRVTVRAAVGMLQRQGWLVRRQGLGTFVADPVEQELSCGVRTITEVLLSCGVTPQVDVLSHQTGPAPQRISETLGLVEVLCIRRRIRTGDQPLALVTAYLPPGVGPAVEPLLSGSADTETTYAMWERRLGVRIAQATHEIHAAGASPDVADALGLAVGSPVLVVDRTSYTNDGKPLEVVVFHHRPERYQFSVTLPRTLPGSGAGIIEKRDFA

[2] = biological target: T2, Rv0792c (HutC, GntR family) (Mycobacterium tuberculosis); test: ALISA (plate-immobilized protein)
[3] = biological target: the molecule itself; test: AUC; sedimentation velocity; Rv0792c at 0.38, 0.76 and 1.52 mg/mL in 25 mM HEPES pH 7.2, 400 mM NaCl, 10% glycerol; 40,000 rpm; absorbance at 280 nm; c(s) analysis with SedFit; S20,w

Molecule: COc1cc(/C=C(\C#N)C(=O)c2ccc(O)c(O)c2)cc(I)c1O [I-OMe-Tyrphostin, (2E)-2-(3,4-dihydroxybenzoyl)-3-(4-hydroxy-3-iodo-5-methoxyphenyl) acrylonitrile]
- IC50 (Rv0792c): ~109 nM

Molecule: TCTAGTCATTCGTCATAATCCCATCTGTTTCTTCCTCCTTCCGT [Rv0792c_2 aptamer (also Rv0729c_2)]
- IC50 [1]: 109 nM
- Kd [2]: 51 nM

B1: Rv0792c from Mycobacterium tuberculosis, wild type, with an amino-terminal histidine tag (natural protein)
chain: T2 sequence (O86331 whole entry, looked up)
notes: also called His6-Rv0792c; (His)6-Rv0792c; not shown: His6, N-terminal, kept
- stoichiometry N [3]: 2
